Substitutions are numbered along the chain they refer to. Values belong to the binder of their own block, whether it stands above or below them.
How the values were obtained:
human DLL3-His protein = biological target: T1, human DLL3-His protein (human, UniProt Q9NYJ7 27-492); experiment: IHC competition: antibody mixed with a 5x molar ratio excess of hDLL3-His before staining FFPE sections
T1 construct: Purified from supernatants of CHO-S cells; also called hDLL3-His; recombinant DLL3-His; not shown: His tag
T1 sequence: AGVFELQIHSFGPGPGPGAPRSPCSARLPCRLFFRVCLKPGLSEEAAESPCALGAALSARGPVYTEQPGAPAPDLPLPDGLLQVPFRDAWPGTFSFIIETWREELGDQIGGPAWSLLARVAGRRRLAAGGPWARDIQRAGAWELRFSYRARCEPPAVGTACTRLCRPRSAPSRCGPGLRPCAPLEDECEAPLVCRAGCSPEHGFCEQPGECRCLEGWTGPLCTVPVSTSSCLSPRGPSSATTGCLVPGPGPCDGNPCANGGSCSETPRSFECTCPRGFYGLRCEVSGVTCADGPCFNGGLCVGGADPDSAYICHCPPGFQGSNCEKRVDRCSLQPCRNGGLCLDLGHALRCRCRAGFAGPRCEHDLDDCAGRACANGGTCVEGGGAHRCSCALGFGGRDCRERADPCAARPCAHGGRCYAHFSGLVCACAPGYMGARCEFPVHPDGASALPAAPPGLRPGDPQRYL
Description: (§1) In order to identify an IHC-compatible anti-DLL3 antibody, IHC was performed on HEK293T parental cell pellets or DLL3-expressing HEK293T cell pellets using numerous anti-DLL3 antibodies of the invention. Several murine anti-DLL3 antibodies (including SC16.65) were able to specifically detect DLL3-overexpressing HEK293T cell pellets more effectively than other anti-DLL3 antibodies of the invention that were tested (data not shown). The ability of these antibodies to specifically detect DLL3 was confirmed by a competition experiment in which the relevant anti-DLL3 antibody was mixed with a 5× molar ratio excess of hDLL3-His protein and then incubated with DLL3-expressing HEK293T formalin fixed and paraffin embedded (FFPE) sections.

[1] = biological target: T2, DLL3 on DLL3-expressing HEK293T cells (human, UniProt Q9NYJ7 27-618); experiment: immunohistochemistry on HEK293T parental vs DLL3-expressing cell pellets
T2 construct: Cells were formalin fixed and paraffin embedded for IHC; also called DLL3-overexpressing HEK293T cell pellets; DLL3-expressing HEK293T FFPE sections
T2 sequence: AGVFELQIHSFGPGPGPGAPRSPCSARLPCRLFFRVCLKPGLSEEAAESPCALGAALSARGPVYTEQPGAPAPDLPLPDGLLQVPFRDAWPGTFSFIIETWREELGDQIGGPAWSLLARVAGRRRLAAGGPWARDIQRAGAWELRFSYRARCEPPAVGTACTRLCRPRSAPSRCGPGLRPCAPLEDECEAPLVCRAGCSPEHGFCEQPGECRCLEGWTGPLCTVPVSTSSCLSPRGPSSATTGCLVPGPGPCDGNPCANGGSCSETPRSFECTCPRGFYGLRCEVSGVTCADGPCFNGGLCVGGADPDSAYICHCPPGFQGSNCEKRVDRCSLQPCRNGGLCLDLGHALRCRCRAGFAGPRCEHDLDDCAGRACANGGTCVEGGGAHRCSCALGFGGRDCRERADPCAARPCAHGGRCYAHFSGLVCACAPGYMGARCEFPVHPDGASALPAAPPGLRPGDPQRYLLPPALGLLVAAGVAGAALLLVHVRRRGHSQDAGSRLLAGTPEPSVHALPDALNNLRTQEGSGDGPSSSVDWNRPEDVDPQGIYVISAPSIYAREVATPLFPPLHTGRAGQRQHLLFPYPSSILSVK
Description: as §1

[2] = biological target: T3, DLL3 extracellular domain (amino acids 27-466) displayed on yeast (human, UniProt Q9NYJ7 27-466); experiment: fine epitope mapping (phage display peptide library or yeast display of DLL3 ECD mutants)
T3 construct: also called DLL3 ECD; wild type DLL3 ECD
T3 sequence: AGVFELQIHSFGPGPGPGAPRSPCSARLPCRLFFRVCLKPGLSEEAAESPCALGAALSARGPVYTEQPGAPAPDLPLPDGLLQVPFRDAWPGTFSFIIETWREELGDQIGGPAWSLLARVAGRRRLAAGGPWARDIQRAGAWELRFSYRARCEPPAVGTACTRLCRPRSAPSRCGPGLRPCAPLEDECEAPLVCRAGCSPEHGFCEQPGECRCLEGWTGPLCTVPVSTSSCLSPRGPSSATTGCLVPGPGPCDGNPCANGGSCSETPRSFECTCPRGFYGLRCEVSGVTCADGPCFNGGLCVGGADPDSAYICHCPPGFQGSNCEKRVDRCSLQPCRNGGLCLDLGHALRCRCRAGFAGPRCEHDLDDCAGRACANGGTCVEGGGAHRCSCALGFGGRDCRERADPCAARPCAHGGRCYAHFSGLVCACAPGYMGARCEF

- binding result (human DLL3-His protein): binds
- binding result [1]: binds
B1: SC16.65 (antibody, V domains shown)
VH: QVTLKESGPGILQPSQTLSLTCSFSGFSLSTSGMGVGWIRQPSGKGLEWLALIWWDDVKRYNPALKSRLTISKDASSSQVFLKIASVDTADTATYYCARIASYDYDVVYAMDYWGQGTSVSVSS
VL: QIVLTQSPALMSASPGEKVTMTCSVTSSVSYMYWYQQKPRSSPKPWIYLTSNLASGVPARFSGSGSGTSYSLTISSVEAEDAATYYCQQWRNNPFTFGSGTKVEIK
notes: murine hybridoma mAb

- binding result [2]: binds
B2: SC16.23 (antibody, V domains shown)
VH: QVTLKESGPGILQPSQTLSLTCSFSGFSLSTSNTGIGWIRQPSGTGLEWLAHIWWNDDKYYNPSLKSRLTISKETSNNQVFLKITNVDTADTASYFCVQIGRDYSNYAWYFDVWGAGTTVTVSS
VL: QIVLTQSPAIMSASPGEKVTLTCSASSSVSSRYLYWYQQKPGSSPKLWIYSTSNLASGVPARFSGSGSGTSYSLIISSMEAEDAASYFCHQWSNYPLTFGAGTKLELK
notes: murine hybridoma mAb

- binding result [2]: binds
B3: SC16.34 (antibody, V domains shown)
VH: QIQLVQSGPELKRPGETVKISCKASGYTFTNYGMNWVKQAPGKGLKWMGWINTYTGDPTYADDFKGRFAFSLETSASTAYLQINNLKNEDTATYFCARIGGNSPSDYWGQGTSLTVSS
VL: SIVMTQTPKFLLVSAGDRVTITCKASQSVSNDVAWYQQKPGQSPKLLIYYASNRYSGVPDRFTGSGYGTDFTFTISTVQAEDLAVYFCQQDYSSPWTFGGGTKLEIK
notes: murine hybridoma mAb

- binding result [2]: binds
B4: SC16.56 (antibody, V domains shown)
VH: B3 VH with R13K, G49A, D57E, Y80S, N84I, G101D, N102S, S113T
VL: B3 VL with A34V, S56T, T63A, T72S, S93T, K107R
notes: murine hybridoma mAb

— patent publication US20180243435A1 (AbbVie / Abbott, published 2018)
